Measurements as given in patent US20250034224A1.
One block for each substance: values may come before it.

Assays:
Test in all cases: cell-based or functional assay
[1] = molecular target: Chimeric antigen receptor containing a VL-VH scFv (VL and VH of antibody 17363N) recognizing T3 (HLA)
[2] = molecular target: IL2 receptors (on lymphocyte populations of human PBMCs)
[3] = molecular target: OT-I TCR (Ovalbumin(257-264)-specific) on CD8+ T cells of an OT-I TCR transgenic mouse (mouse); conditions: scale: orders of magnitude higher potency than T5-IL2M6

Substance: T3-IL2M6: HPV16E7(11-19)-GCGGS-(GGGGS)2-hB2m-(GGGGS)4-hHLA.A2-(GGGGS)4-Fc-(GGGGS)3-hIL2(H16A, F42A) (peptide-MHC)
frequency of viable CAR-T (eGFPPos) cells at day 3 of expansion (start 38%) [1]: 36%

potency in STAT5 phosphorylation on multiple lymphocyte populations, against IL2M4 (fold less potent than IL2M4) [2]: > 100
Substance: IL2M5: Fc-GGGGS-human IL2 (N88D, C125A) fusion (Fc fusion)

intracellular STAT5 phosphorylation in gated CD8+ T cells of OT-I splenocytes [3]: 2
Substance: T4-IL2M6: OVA(257-264)-GCGGS-(GGGGS)2-mB2m-(GGGGS)4-mH2Kb-(GGGGS)4-Fc-(GGGGS)3-hIL2(H16A, F42A) (peptide-MHC)

potency in STAT5 phosphorylation on multiple lymphocyte populations, against IL2M0 (fold less potent than IL2M0) [2]: 100
Substance: IL2M2: Human IL2-(GGGGS)4-human IL-2Ra-GGGGS-Fc (Fc fusion)
